In US20120316071A1 (published 2012) one finds ECL signal and Signal/Noise data, which are given here for eight molecules.

The target of test [1] is T1, rHuman P-Cadherin/Fc Chimera, CF (R&D Systems Cat#861-PC) (human, UniProt P22223 108-654).
T1 construct: Bought recombinant protein; Fc part of the bought chimera not given
The experiment in a line: ECL multispot (MSD) binding assay, antigen spotted on plate, Fab 0.04 uM.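 Further: purified Fab incubated 1 h at 20 °C on antigen spots, detected via TAG-labelled antibody, ECL read against each well's blank, with signal-to-blank of at least 4 scored as binder.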

For test [2], the target named is T2, Recombinant Human DLL4 (R&D Systems Cat#1506-D4/CF) (human, UniProt Q9NR61 27-524).
T2 construct: Bought recombinant protein; also called delta-like protein 4; rHuman DLL4
Described as above.

Test [3] deals with T3, Recombinant Human DLL4 (human, UniProt Q9NR61 27-524).
T3 construct: Bought recombinant human DLL4 (R&D Systems Cat#1506-D4/CF), coated on the plate; also called delta-like protein 4; rHuman DLL4
The experiment in a line: ECL (MSD) 96-well plate assay, DLL4 coated at 30 ug/mL, Fab 0.1 uM; signal over blank.

Test [4] addresses T3, Recombinant Human DLL4. The experiment in a line: ECL (MSD) 96-well plate assay, DLL4 coated at 15 ug/mL, Fab 0.02 uM; signal over blank.

B1: Fab VH5-51_IGHD5-18*01>3_IGHJ4*01 G100K/G104T (H:KT) & V3-4_IGLJ1*01 G97A (Fab, V domains shown)
VH: EVQLVQSGAEVKKPGESLKISCKGSGYSFTSYWIGWVRQMPGKGLEWMGIIYPGDSDTRYSPSFQGQVTISADKSISTAYLQWSSLKASDTAMYYCARRKYSYTYDYFDYWGQGTLVTVSS
VL: QTVVTQEPSFSVSPGGTVTLTCGLSSGSVSTSYYPSWYQQTPGQAPRTLIYSTNTRSSGVPDRFSGSILGNKAALTITGAQADDESDYYCVLYMGSAISYVFGTGTKVTVL
notes: Fab; Expressed from Plasmid A (CH1, His6 and Flag tags) and Plasmid E (lambda CL); also called KT & G97A
B1: the results for the ECL signal in test [1] and in test [2] were 474 and 14900, respectively.

B2: Fab VH5-51_IGHD5-18*01>3_IGHJ4*01 G104A & V3-4_IGLJ1*01 (Fab, V domains shown)
VH: EVQLVQSGAEVKKPGESLKISCKGSGYSFTSYWIGWVRQMPGKGLEWMGIIYPGDSDTRYSPSFQGQVTISADKSISTAYLQWSSLKASDTAMYYCARRGYSYAYDYFDYWGQGTLVTVSS
VL: QTVVTQEPSFSVSPGGTVTLTCGLSSGSVSTSYYPSWYQQTPGQAPRTLIYSTNTRSSGVPDRFSGSILGNKAALTITGAQADDESDYYCVLYMGSGISYVFGTGTKVTVL
notes: Fab; VH-CH1 (His6/Flag, Plasmid A) and VL-lambda CL (Plasmid E)
Take B2: the figures for the Signal/Noise in the test with Recombinant Human DLL4 [3] and with Recombinant Human DLL4 [4] were 6.7 and 2.6, respectively.

B3: Fab VH5-51_IGHD5-18*01>3_IGHJ4*01 G104S & V3-4_IGLJ1*01 (Fab, V domains shown)
VH: EVQLVQSGAEVKKPGESLKISCKGSGYSFTSYWIGWVRQMPGKGLEWMGIIYPGDSDTRYSPSFQGQVTISADKSISTAYLQWSSLKASDTAMYYCARRGYSYSYDYFDYWGQGTLVTVSS
VL: QTVVTQEPSFSVSPGGTVTLTCGLSSGSVSTSYYPSWYQQTPGQAPRTLIYSTNTRSSGVPDRFSGSILGNKAALTITGAQADDESDYYCVLYMGSGISYVFGTGTKVTVL
notes: as for B2
Consider B3, for which the Signal/Noise with Recombinant Human DLL4 [3] turned out to be 47.8; in the test with Recombinant Human DLL4 [4], 25.6.

B4: Fab VH5-51_IGHD5-18*01>3_IGHJ4*01 G104M & V3-4_IGLJ1*01 (Fab, V domains shown)
VH: EVQLVQSGAEVKKPGESLKISCKGSGYSFTSYWIGWVRQMPGKGLEWMGIIYPGDSDTRYSPSFQGQVTISADKSISTAYLQWSSLKASDTAMYYCARRGYSYMYDYFDYWGQGTLVTVSS
VL: QTVVTQEPSFSVSPGGTVTLTCGLSSGSVSTSYYPSWYQQTPGQAPRTLIYSTNTRSSGVPDRFSGSILGNKAALTITGAQADDESDYYCVLYMGSGISYVFGTGTKVTVL
notes: as for B2
Consider B4, for which the Signal/Noise was found to be 29.1 with Recombinant Human DLL4 [3] and 12.3 in the test with Recombinant Human DLL4 [4].

B5: Fab VH5-51_IGHD5-18*01>3_IGHJ4*01 G100T & V3-4_IGLJ1*01 (Fab, V domains shown)
VH: EVQLVQSGAEVKKPGESLKISCKGSGYSFTSYWIGWVRQMPGKGLEWMGIIYPGDSDTRYSPSFQGQVTISADKSISTAYLQWSSLKASDTAMYYCARRTYSYGYDYFDYWGQGTLVTVSS
VL: QTVVTQEPSFSVSPGGTVTLTCGLSSGSVSTSYYPSWYQQTPGQAPRTLIYSTNTRSSGVPDRFSGSILGNKAALTITGAQADDESDYYCVLYMGSGISYVFGTGTKVTVL
notes: as for B2
Regarding B5, the Signal/Noise worked out at 26 with Recombinant Human DLL4 [3] and 11 with Recombinant Human DLL4 [4].

B6: Fab VH5-51_IGHD5-18*01>3_IGHJ4*01 G100K & V3-4_IGLJ1*01 (Fab, V domains shown)
VH: EVQLVQSGAEVKKPGESLKISCKGSGYSFTSYWIGWVRQMPGKGLEWMGIIYPGDSDTRYSPSFQGQVTISADKSISTAYLQWSSLKASDTAMYYCARRKYSYGYDYFDYWGQGTLVTVSS
VL: QTVVTQEPSFSVSPGGTVTLTCGLSSGSVSTSYYPSWYQQTPGQAPRTLIYSTNTRSSGVPDRFSGSILGNKAALTITGAQADDESDYYCVLYMGSGISYVFGTGTKVTVL
notes: as for B2
With B6, the Signal/Noise was found to be 134 with Recombinant Human DLL4 [3] and 72.6 with Recombinant Human DLL4 [4].

B7: Fab VH5-51_IGHD5-18*01>3_IGHJ4*01 G100R & V3-4_IGLJ1*01 (Fab, V domains shown)
VH: EVQLVQSGAEVKKPGESLKISCKGSGYSFTSYWIGWVRQMPGKGLEWMGIIYPGDSDTRYSPSFQGQVTISADKSISTAYLQWSSLKASDTAMYYCARRRYSYGYDYFDYWGQGTLVTVSS
VL: QTVVTQEPSFSVSPGGTVTLTCGLSSGSVSTSYYPSWYQQTPGQAPRTLIYSTNTRSSGVPDRFSGSILGNKAALTITGAQADDESDYYCVLYMGSGISYVFGTGTKVTVL
notes: as for B2
Regarding B7, the Signal/Noise amounted to 90.6 with Recombinant Human DLL4 [3] and 39.9 in the test with Recombinant Human DLL4 [4].

B8: Fab VH5-51_IGHD5-18*01>3_IGHJ4*01 G104D & V3-4_IGLJ1*01 (Fab, V domains shown)
VH: EVQLVQSGAEVKKPGESLKISCKGSGYSFTSYWIGWVRQMPGKGLEWMGIIYPGDSDTRYSPSFQGQVTISADKSISTAYLQWSSLKASDTAMYYCARRGYSYDYDYFDYWGQGTLVTVSS
VL: QTVVTQEPSFSVSPGGTVTLTCGLSSGSVSTSYYPSWYQQTPGQAPRTLIYSTNTRSSGVPDRFSGSILGNKAALTITGAQADDESDYYCVLYMGSGISYVFGTGTKVTVL
notes: as for B2
With B8, the Signal/Noise came out at 42.5 with Recombinant Human DLL4 [3] and 23.2 with Recombinant Human DLL4 [4].
